Experimental data reported in PMC7797001 (Molecular cell, 2020).

B1: SP-BM purified from bovine lungs (natural protein, UniProt P15781 188-266, looked up)
chain: FPIPIPYCWLCRTLIKRIQAVIPKGVLAMTVAQVCHVVPLLVGGICQCLVERYSVILLDTLLGRMLPQLVCGLVLRCSS

Columns and labels:
[1] = molecular target: SP-BM generated from human proSP-B by proteinase K (human) (UniProt P07988); assay: reducing and non-reducing SDS-PAGE
non-reducing SDS-PAGE = molecular target: the molecule itself; assay: non-reducing SDS-PAGE

Row | Molecule | stoichiometry N [1] | stoichiometry N (non-reducing SDS-PAGE)
1 | SP-BM generated from human proSP-B by proteinase K (from UniProt P07988 201-279) (domain or fragment) | 2 | 
2 | B1 |  | 2
